Data: PMC5416850 (Nucleic Acids Research, 2017)

Key:
[1] = molecular target: Vibrio cholerae HigB2 toxin (Vibrio cholerae, UniProt Q9KMA6); assay: crystal structure
crystal structure = molecular target: the molecule itself; assay: crystal structure
[2] = molecular target: T1, Vibrio cholerae HigB2 toxin (Vibrio cholerae, UniProt Q9KMA6); assay: ITC
T1 sequence: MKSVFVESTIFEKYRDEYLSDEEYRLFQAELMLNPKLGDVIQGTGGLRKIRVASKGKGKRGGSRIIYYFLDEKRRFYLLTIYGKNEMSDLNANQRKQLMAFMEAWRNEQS

SAXS = molecular target: the molecule itself; assay: SAXS

B1: nanobody Nb2 (VHH)
VHH: QVQLQESGGGLVQPGGSLRLSCAASGFTLDYYAIGWFRQAPGKEREGVSCISSSGGTTNYADSVKGRFTVSRDNAKNTVYLQMNSLKPEDTAVYYCVADFACPLIREYDYWGQGTQVTVSS
[1]
  binding result: binds

B2: C-terminal domain of VcHigA2 (residues 38-104) (domain or fragment)
chain: LNISPDEIVSIREQFNMSRGVFARLLHTSSRTLENWEQGRSVPNGQAVTLLKLVQRHPETLSHIAEL
Crystal structure
  binding result: binds

B3: VcHigA2_(3-22) peptide (peptide)
peptide: NRDLFAELSSALVEAKQHSEW
[2]
  binding result: binds

B4: nanobody Nb6 (VHH)
VHH: QVQLQESGGGLVQPGGSLRLSCAASGFTFSNYAMRWYRQAPGEEREFVAFISSVGGSTNYADSVKGRFTISRDNGKNTLYLQMNSLKPEDTAVYFCVARLSLISDSWGQGTQVTVSS
[1]
  binding result: binds

B5: Vibrio cholerae HigA2 antitoxin, full length (natural protein)
chain: MSNRDLFAELSSALVEAKQHSEGKLTLKTHHVNDVGELNISPDEIVSIREQFNMSRGVFARLLHTSSRTLENWEQGRSVPNGQAVTLLKLVQRHPETLSHIAEL
[2]
  dH: -26.6 ± 0.9 kcal/mol
SAXS
  stoichiometry N: 2
